The supplement of paper PMC9170038

Tested on: MS2 coat protein
Assay: apparent KD of MS2 coat protein; designed switch direction (-1 OFF switch, 1 ON switch): -1; higher = weaker reporter binding
In short: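 Each step of the titration lasted 0.8–1.5 h at the lowest concentration and 10–20 min at the highest. The protein, SNAP-549-labelled MS2 coat protein, went from 0.7 or 1.5 nM doubling to 3 µM over RNA switches transcribed on Illumina chips by stalled E. coli RNA polymerase. Normalised cluster fluorescence was curve-fitted, and the per-design median over clusters is given as apparent KD.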

[1] = Eterna round: R95, input ligand: FMN 200 uM
[2] = Eterna round: R95, input ligand: microRNA oligo, concentration not stated
[3] = Eterna round: R95, input ligand: none
[4] = input ligand: microRNA oligo, concentration not stated

Row | Sequence | apparent KD of MS2 coat protein [1] [nM] | apparent KD of MS2 coat protein [2] [nM] | apparent KD of MS2 coat protein [3] [nM] | apparent KD of MS2 coat protein (input ligand: FMN 200 uM) [nM] | apparent KD of MS2 coat protein (input ligand: none) [nM] | apparent KD of MS2 coat protein [4] [nM]
1 | CAUACUCAAGUCAGGAUAUACAGUCGAAUACGGGUGUAGAAGGGACAUGAGGAUCACCCAUGUAGAGAGUAAAG [EX-4 Malc #22] (puzzle: Brourd's mod of Exclusion 4) | 122 | 33 | 36.1 |  |  | 
2 | CAUACUCAAGUCAGGAUAUGCAGUCGAAUACGGGUGUAGAAGGGACAUGAGGAUCACCCAUGUAGAGAGUAAAG [EX-4 Malc #21] (puzzle: Brourd's mod of Exclusion 4) | 99.8 | 36.8 | 51.1 |  |  | 
3 | CAUACUCAAGUGAGGAUAUAGUCUCGGAUACGAAACUAGAAGGCACAUGAGGAUCACCCAUGUAGAGAGUAAAG [EX-4 Malc #29] (puzzle: Brourd's mod of Exclusion 4) | 62.7 | 18.5 | 13.1 |  |  | 
4 | CAUACUGAAGUUAGGAUAUGCGGCCGAAUACGGGUGUAGAAGGGACAUGAGGAUCACCCAUGUAGAUAGUAAAG [EX-4 Malc #16] (puzzle: Brourd's mod of Exclusion 4) | 27.3 | 24.9 | 20.1 |  |  | 
5 | CAUACUGAAGUUAGGAUAUUCGAACGUAUACGGAUGGAGAAGGGACAUGAGGAUCACCCAUGUAGUUAGUAAAG [EX-4 Malc #10] (puzzle: Brourd's mod of Exclusion 4) | 17.3 | 17.4 | 22.3 |  |  | 
6 | CAUACUGAAGUUAGGAUAUUCGGACGUAUACGGAUGGAGAAGGGACAUGAGGAUCACCCAUGUAGAUAGUAAAG [EX-4 Malc #12] (puzzle: Brourd's mod of Exclusion 4) | 22.7 | 23.1 | 22.3 |  |  | 
7 | CAUAGCCGUGUAAGGAUAUCCGAUCCACGGGACAAGGAGAAGGUACAUGAGGAUCACCCAUGUAAGGGUUCCUA [Vecequve] (Eterna round: R97, puzzle: Brourd's mod of Exclusion 4) |  |  |  | 22.9 | 21.7 | 
8 | CAUAGUUACACAGGAUAUAGUACAUGAGGAUCACCCAUGUAAUAAAUGAGAAUUUCGAAUGUAUACUAGAAGGGUGAAAUCUAC [Ostracism 54 - Jieux - Exclusion NG 2] (Eterna round: R96, puzzle: Exclusion NG 2) |  |  |  | 206 | 171 | 144
9 | CAUAUAGUAGUCAGGAUAUGCGAAUAUAUAAUUAAGUAGAAGGGACAUGAGGAUCACCCAUGUAUAUUGUAAAG [EX-4 Malc #2] (puzzle: Brourd's mod of Exclusion 4) | 26.9 | 26.1 | 28.4 |  |  | 
10 | CAUCUGUGAGGAUAUGGUGAGUAGUGCCUGAGCGCUGCUCACCAGAAGGCACAUGAGGAUCACCCAUGUAUGAA [Mat - Exclusion 4 - Mod of JL - D1] (puzzle: Exclusion 4) |  | 46.9 |  |  |  | 
11 | CAUGAUCUUCGGAUCAUGUACAUGAGGAUCACCCAUGUUACGAGCUGAUUUUCAUACAAGCUUUUUGCUCGUCUUAU [Sensor v3 - Turn-off variant 1 - 30] (puzzle: Sensor v3, turn-off variant 1) | 41.5 | 317 | 43 |  |  | 
12 | CAUGAUUGACGAGGAUAUUGUUCUACAUCACGACGAGAAGGCGUCUGUCACAUGAGGAUCACCCAUGUGAGACUGGUGAAUGAG [Ex NG1 #81] (Eterna round: R96, puzzle: Exclusion NG 1) |  |  |  | 36.4 | 20.4 | 17.1
13 | CAUGCUUCGGCAUGUACAAGCUUUUUGCUCGUCUUAUUAACAUGAGGAUCACCCAUGUCAAAGAGACCUCAUGUAUU [Sensor v3 - turn-off variant 2 - 3] (puzzle: Sensor v3, turn-off variant 2) | 356 | 16 | 263 |  |  | 
14 | CAUGCUUCGGCAUGUACAAGCUUUUUGCUCGUCUUAUUAACAUGAGGAUCACCCAUGUUAAUGAGACCUCAUGUAUU [Sensor v3 - turn-off variant 2 - 8] (puzzle: Sensor v3, turn-off variant 2) | 13.6 | 16.7 | 11.4 |  |  | 
15 | CAUGGCACGUAGGAUAUCUCGCAGCCCGGCUGCAGAGAAGGACGUACAUGAGGAUCACCCAUGUAUGAUCCAAA [Laquus] (puzzle: Exclusion 6) |  | 24.1 |  |  |  | 
